Molecular target: biotinylated PepT2 (C-terminal Avi tag) (Rattus norvegicus, UniProt Q63424, biotin (on the Avi tag, by BirA))
Experiment: BLI

Sequence of biotinylated PepT2 (C-terminal Avi tag) (Q63424 whole entry): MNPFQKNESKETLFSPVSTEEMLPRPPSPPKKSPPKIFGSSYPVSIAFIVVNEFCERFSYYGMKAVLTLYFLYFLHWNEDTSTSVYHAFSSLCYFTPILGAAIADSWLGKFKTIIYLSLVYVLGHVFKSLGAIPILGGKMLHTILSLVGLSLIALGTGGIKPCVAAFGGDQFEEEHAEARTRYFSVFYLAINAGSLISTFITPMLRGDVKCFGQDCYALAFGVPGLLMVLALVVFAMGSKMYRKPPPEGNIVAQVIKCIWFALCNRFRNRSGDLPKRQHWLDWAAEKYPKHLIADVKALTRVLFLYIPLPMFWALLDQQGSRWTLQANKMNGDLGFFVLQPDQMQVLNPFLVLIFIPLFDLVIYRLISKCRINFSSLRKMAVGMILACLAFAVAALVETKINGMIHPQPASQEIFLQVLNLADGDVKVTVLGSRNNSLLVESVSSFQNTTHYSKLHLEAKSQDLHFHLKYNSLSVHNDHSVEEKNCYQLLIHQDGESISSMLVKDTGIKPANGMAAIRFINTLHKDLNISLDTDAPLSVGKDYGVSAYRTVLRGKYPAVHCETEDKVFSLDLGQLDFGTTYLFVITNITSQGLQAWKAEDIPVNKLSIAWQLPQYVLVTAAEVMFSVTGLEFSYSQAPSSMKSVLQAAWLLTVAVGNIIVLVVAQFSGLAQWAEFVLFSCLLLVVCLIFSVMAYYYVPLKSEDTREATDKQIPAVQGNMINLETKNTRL

B1: nanobody D8 (VHH)
VHH: QVQLVESGGGLVQPGGSLRLLCVASGRPFNDYDMGWFRQAPGKEREFVASISWSGRVTDYSDSMKGRCTVSRDNAKGTMFLQMSNLVPRDTAVYYCAAARRRWTFKATNTEEFYETWGQGTQVTVSS
- Kd: ~25 nM
